Usually pKd stands for the negative decadic logarithm of the Kd, by convention in mol/L. Higher therefore signals a small Kd.

Drawing on publication PMC6555802, this text covers Kd for one substance.

The target in the experiment is CHML (fluorescence titration) (human) (UniProt P26374). Kind of experiment: other fluorescence titration; fluorescence titration assay (Supplementary Fig. 8); conditions not stated in the text shown.

pKd: −log10 of the molar value.

Sequence of CHML (fluorescence titration) (human) (P26374 whole entry): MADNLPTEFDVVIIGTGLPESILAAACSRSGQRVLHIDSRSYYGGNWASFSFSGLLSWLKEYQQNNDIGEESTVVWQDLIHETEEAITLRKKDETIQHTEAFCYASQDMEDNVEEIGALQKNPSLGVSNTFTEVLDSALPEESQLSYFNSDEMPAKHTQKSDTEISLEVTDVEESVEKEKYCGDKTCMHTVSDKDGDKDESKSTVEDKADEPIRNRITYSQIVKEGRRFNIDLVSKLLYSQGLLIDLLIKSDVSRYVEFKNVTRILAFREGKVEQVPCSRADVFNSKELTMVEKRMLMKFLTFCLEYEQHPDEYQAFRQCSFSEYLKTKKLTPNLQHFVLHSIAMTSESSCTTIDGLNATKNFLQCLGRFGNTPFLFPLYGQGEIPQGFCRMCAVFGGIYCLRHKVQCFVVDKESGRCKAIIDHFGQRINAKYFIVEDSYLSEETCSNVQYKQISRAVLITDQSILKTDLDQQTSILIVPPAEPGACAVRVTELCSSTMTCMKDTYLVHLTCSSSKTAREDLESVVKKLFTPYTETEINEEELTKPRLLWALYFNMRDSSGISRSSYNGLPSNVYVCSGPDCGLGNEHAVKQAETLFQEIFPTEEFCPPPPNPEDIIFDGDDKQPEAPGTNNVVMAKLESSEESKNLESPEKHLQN

“Rab7A (fluorescence titration) (from UniProt P51149 1-207) (natural protein)” had a pKd of 8.11.
